Assay results taken from patent US20140017790A1, “CONTROL AGENT FOR CONTROLLING UNDIFFERENTIATED STATE AND USE THEREOF” (RIKEN, priority 2011, published 2014).

Legend:
Type in all cases: cell-based
ERK1/2 = experiment: Western blotting, phosphorylation of ERK1/2 in mouse iPS cells; settings: CCL2 overexpressed, relative to negative control
Experimental: (§1) The mouse iPS cells transfected with the Ccl2 expression vector were cultured for 24 hours in the same manner as in Example 1. After the culture, the mouse iPS cells were washed with PBS, and then were suspended in 100 μl of a mammalian m-PER lysis buffer. The suspension was passed through a 26-gauge needle for 10 minutes to homogenize the cells. Then, the suspension was centrifuged at 13,000 rpm and 4° C. for 5 minutes, and the supernatant was collected. The protein concentration in the supernatant was measured using a Pierce (registered trademark) BCA Protein assay (trade name, Thermo Scientific). Next, the supernatant was subjected to Western blotting to detect a target protein. Specifically, first, the supernatant (total protein: 10 μg) was applied to a Novex Gel electrophoresis system with 4%-12% Bis-Tris gels, and was blotted on a nitrocellulose membrane. Then, the membrane was incubated with a primary antibody against the target protein. After washing the membrane, the membrane was incubated with a labeled secondary antibody labeled with horseradish peroxidase, and a color-developing reaction was caused using a coloring reagent (trade name: ECL plus, GE Healthcare). Then, luminescence on the membrane was detected using a Fuji LAS-3000 luminescent image analyzer. […]

mouse iPS cells = experiment: quantitative RT-PCR of undifferentiated marker genes, CCL2 overexpressed in mouse iPS cells; settings: CCL2 overexpressed (Ccl2 expression vector), feeder free, 24 hours
Experimental: A PrimeScript RT-PCR Kit (trade name, TAKARA BIO INC.), an ABI 7500 Fast real time PCR system (trade name, Applied BioSystems), and a SYBR (registered trademark) Premix Ex Taq (trade name, TAKARA BIO INC.) were used in accordance with their protocols. PCR was carried out by conducting 40 cycles of treatment with a treatment at 94° C. for 5 second and at 62.5° C. for 20 seconds as 1 cycle. The expression level of each gene was calculated by normalizing the relative amount of mRNA in the gene to Gapdh mRNA according to the 2^−ΔΔ^CT method (Thomse R, Solvsten C A, Linnet T E, et al., Analysis of qPCR data by converting exponentially related Ct values into linearly related XO values. J Bioinform Comput Biol 2010: 8: 885-900.).
In the following manner, CCL2 was overexpressed in the mouse iPS cells, and the expression levels of undifferentiated marker genes were examined. The undifferentiated marker genes were the Ecat1 gene, Cripto gene, Oct3/4 gene, Zfp42 gene, Esg1 gene, Eras gene, Fgf4 gene, Dax1 gene, Nanog gene, Sox2 gene, Klf4 gene, cMyc gene, Tbx3 gene, and Eed gene.
A Ccl2 expression vector that overexpresses CCL2 was constructed. The CCL2 to be expressed was a mouse-derived protein having a full-length amino acid sequence of SEQ ID NO: 3. First, using a Gateway Technology (Invitrogen), a full-length cDNA (SEQ ID NO: 6) coding for the CCL2 was cloned into a pENTER/D-TOPO vector. The cloned sequence was confirmed, and thereafter, the full-length cDNA was inserted into an EF-α1 promoter-containing pEF-DEST51 vector (Invitrogen) using a Gateway LR Clonase II Enzyme Mix (Invitrogen), thus constructing the Ccl2 expression vector. The Ccl2 expression vector was purified using an Endotoxin free Plasmid maxi prep kit (Qiagen) in accordance with its protocol.
Next, the mouse iPS cells cultured under the feeder free conditions were seeded in a 12-well dish at a density of 3×10^5 cells/well. The amount of a medium to be added to the dish was set to 1 ml/well. Then, using 16 μl of a Lipofectamine 2000 (Invitrogen) and 4.8 μg of the Ccl2 expression vector per well, the mouse iPS cells were transfected with the Ccl2 expression vector. These mouse iPS cells were cultured for another 24 hours under feeder free conditions. Thereafter, total RNAs were extracted, and the expression levels of the undifferentiated marker genes were examined. The expressions of the undifferentiated marker genes were examined by the quantitative RT-PCR using the above-described primers. […] Then, the fold changes in expression level relative to the negative control were calculated.

AKT = experiment: Western blotting, phosphorylation of AKT in mouse iPS cells; settings: CCL2 overexpressed, relative to negative control
Experimental: as §1

human iPS cells = experiment: culture of human iPS cells in feeder free media, EB plating, cell adhesion
Description: As undifferentiated cells, the same human iPS cells as used in Example 7 were used. As CCL2, the mouse recombinant CCL2 used in the item (1) of Example 2 was used. As feeder free media, the following three kinds of media were provided by adding or not adding the CCL2, LIF and bFGF to the medium for human stem cells used in Example 8. Specifically, the media used were as follows: the medium with CCL2 not added (−)/LIF not added (−)/bFGF added (+); the medium with CCL2 added (+)/LIF not added (−)/bFGF not added (−); and the medium with CCL2 added (+)/LIF added (+)/bFGF not added (−). In each medium, the concentration of the LIF was set to 50 units/ml, the concentration of the CCL2 was set to 500 ng/ml, and the concentration of the bFGF was set to 5 ng/ml. Then, the human iPS cells were cultured for 6 days using each medium, and EBs were produced. Thereafter, the thus-produced EBs were seeded in gelatin coated dishes so that each gelatin coated dish contained one EB, and cultured for 5 days in a medium (DMEM) containing 20% FBS.
The photographs in FIG. 20 show the cell morphologies of the EBs on the 5th day from the plating.

B1: CCL2: mouse recombinant CCL2 (MCP-1, #479-JE-010, R&D Systems); in Examples 1, 3, 4(1), 5 mouse CCL2 (SEQ ID NO: 3) overexpressed from Ccl2 expression vector (protein, listed as Mus musculus)
chain: MQVPVMLLGLLFTVAGWSIHVLAQPDAVNAPLTCCYSFTSKMIPMSRLESYKRITSSRCPKEAVVFVTKLKREVCADPKKEWVQTYIKNLDRNQMRSEPTTLFKTASALRSSAPLNVKLTRKSEANASTTFSTTTSSTSVGVTSVTVN
ERK1/2
  phosphorylation of ERK1/2 (pERK1/2/ERK1/2): not promoted
Mouse iPS cells
  expression of the Klf4 gene, fold change relative to negative control: increased markedly
  expression of the Nanog gene, fold change relative to negative control: increased markedly
  expression of the Sox2 gene, fold change relative to negative control: increased markedly
  expression of the Tbx3 gene, fold change relative to negative control: increased markedly
AKT
  phosphorylation of AKT (pAKT/AKT): not promoted
Human iPS cells; CCL2 500 ng/ml + LIF 50 units/ml, bFGF not added
  cell adhesion: observed
Human iPS cells; CCL2 500 ng/ml + LIF 50 units/ml, bFGF not added, culture for 5 days
  colony growth: observed
Human iPS cells; LIF not added, CCL2 500 ng/ml alone or bFGF 5 ng/ml alone
  cell adhesion: observed
